Laboratory results taken from patent US20140357549A1 (UNIVERSITY OF PITTSBURGH OF THE COMMONWEALTH SYSTEM OF …, published 2014).

Biological target: T1, Nox1 (UniProt Q9Y5S8 1-564, limits assumed)
T1 sequence (looked up): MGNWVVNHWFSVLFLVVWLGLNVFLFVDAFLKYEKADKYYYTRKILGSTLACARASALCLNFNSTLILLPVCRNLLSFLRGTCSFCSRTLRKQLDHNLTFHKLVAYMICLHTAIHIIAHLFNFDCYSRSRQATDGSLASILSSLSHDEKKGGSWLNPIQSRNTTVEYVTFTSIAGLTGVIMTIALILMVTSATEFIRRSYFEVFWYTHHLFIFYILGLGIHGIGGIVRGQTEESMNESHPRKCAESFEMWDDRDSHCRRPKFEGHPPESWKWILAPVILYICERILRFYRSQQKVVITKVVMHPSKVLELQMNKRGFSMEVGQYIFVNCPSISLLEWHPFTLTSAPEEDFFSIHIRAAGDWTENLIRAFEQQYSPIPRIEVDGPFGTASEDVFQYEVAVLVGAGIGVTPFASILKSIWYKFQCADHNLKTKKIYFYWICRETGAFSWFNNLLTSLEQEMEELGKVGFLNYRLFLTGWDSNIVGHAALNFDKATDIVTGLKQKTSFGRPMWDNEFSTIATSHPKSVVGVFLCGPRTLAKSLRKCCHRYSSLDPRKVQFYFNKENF
Assay: cell-based or functional assay

Q: H-EPVDALGKAKV-NH2 [NoxA1ds] was tested. Which “inhibition of O2^- production by Nox1-transfected COS22 cells (SOD-inhibitable cytochrome c reduction), IC50” value did it give?
A: 19 nM
